# Measurements published in US20220332804A1 (CSL INNOVATION, published 2022).
# Substitutions are numbered along the chain they refer to.
# B1: RF16-214 (antibody, V domains shown)
# VH: EVQLLESGGGLVQPGGSLRLSCAASGFTFSWYQMMWVRQAPGKGLEWVSRIYPSGGGTAYADSVKGRFTISRDNSKNTLYLQMNSLRAEDTAVYYCARDAGYGDNWGQGTLVTVSS
# VL: QSALTQPPSVSVSPGQTASITCSGDKLGEKYASWYQQKAGQSPVMVIYQDRKRPSGIPERFSGSNSGNTATLTISGTQAMDEADYYCQAWDTRAVVFGGGTKLTVLG
# What was measured:
# Assay in all cases: SPR, mAb captured, C2 mutant analyte;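 also: Anti-C2 mAbs captured on goat anti-human IgG Biacore CM5 chips, alanine or serine C2 surface mutants flowed over at 37 °C, double-referenced sensorgrams fitted to a 1:1 binding model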
# human C2 T442A = molecular target: T1, human C2 T442A (human, UniProt P06681 21-752)
# T1 sequence: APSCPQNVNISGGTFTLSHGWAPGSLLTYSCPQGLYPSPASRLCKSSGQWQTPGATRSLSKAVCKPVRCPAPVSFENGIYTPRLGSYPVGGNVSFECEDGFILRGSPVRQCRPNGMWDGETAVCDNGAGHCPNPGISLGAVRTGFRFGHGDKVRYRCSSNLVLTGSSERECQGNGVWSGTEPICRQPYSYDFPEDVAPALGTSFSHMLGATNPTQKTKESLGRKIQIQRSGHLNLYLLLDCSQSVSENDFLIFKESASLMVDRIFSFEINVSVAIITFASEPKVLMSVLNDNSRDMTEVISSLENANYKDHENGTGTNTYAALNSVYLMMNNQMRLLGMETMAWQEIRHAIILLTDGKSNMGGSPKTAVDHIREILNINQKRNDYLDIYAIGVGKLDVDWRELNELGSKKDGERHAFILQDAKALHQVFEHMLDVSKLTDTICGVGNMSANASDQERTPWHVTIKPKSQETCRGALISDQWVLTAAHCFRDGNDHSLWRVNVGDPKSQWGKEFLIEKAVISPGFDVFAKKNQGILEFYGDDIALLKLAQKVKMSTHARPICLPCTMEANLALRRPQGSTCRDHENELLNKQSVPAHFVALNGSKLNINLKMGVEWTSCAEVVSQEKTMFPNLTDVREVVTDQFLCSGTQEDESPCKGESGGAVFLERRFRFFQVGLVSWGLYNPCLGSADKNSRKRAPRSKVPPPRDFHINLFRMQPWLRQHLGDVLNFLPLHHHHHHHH
# Method: (§1) Surface plasmon resonance (SPR, Biacore) was used for all binding affinity analyses. In brief, goat anti-human IgG was directly immobilised onto the carboxymethyl dextran surface of CM5 sensorchips to approximately 12,000 RU using standard NHS/EDC chemistry at pH 5. The immobilised antibody surface was pre-conditioned with ten injections of polyclonal human IgG (Privigen 60 s) prepared at 1 μg/mL. Ligands (anti-C2 mAbs) were captured at the beginning of each cycle as described below. An adjacent spot or flow cell in which only Polyclonal IgG was capture was used as a reference surface. The goat anti-human IgG Fc antibody surface was regenerate in 100 mM H3PO4, injected for 45 seconds at the end of each cycle. Experiments were performed at 37° C. and the flow rate of each experiment was kept constant at 30 μL/min.
# (§2) Sensogram data was double-referenced against a reference anti-IgG surface (i.e. minus anti-C2 mAb) and blank buffer injections obtained within each experiment. The binding data was fit to 1:1 (kinetic or steady-state) model using local Rmax and null refraction index (RI=0) when appropriate. Buffers and solutions were filtered (0.22 μm) prior to use.
# human C2 E324A = molecular target: T2, human C2 E324A (human, UniProt P06681 21-752)
# T2 sequence: T1 sequence with E304A, A422T
# Method: as §1, §2
# human C2 K244A = molecular target: T3, human C2 K244A (human, UniProt P06681 21-752)
# T3 sequence: T1 sequence with K224A, A422T
# Method: as §1, §2
# human C2 K430A = molecular target: T4, human C2 K430A (human, UniProt P06681 21-752)
# T4 sequence: T1 sequence with K410A, A422T
# Method: as §1, §2
binder,measurement,setting,value
B1,Kd,human C2 T442A,70.7 nM
same,Kd,human C2 E324A,27.8 nM
same,Kd,human C2 K244A,97.1 nM
same,Kd,human C2 K430A,308 nM
